Experimental findings from patent US20260022175A1 (Chugai, published 2026) are described below.

Changes are numbered by the printed parent chain. Names may count otherwise.

To fix the notation:
B1: 04H1654-KT462/04L1612-lam1//04H1656-HT445/04L1612-lam1 (antibody, human IgG1, lambda)
heavy 1: QVQLVESGGGVVQPGGSLRLSCAASGFTFSSKTMNWVRQAPGKGLEWVSSISTQSHYIYYARSVRGRFTISRDNAKNSLYLQMNSLRAEDTAVYYCARYGKREDMLWVFDYWGQGTLVTVSSASTKGPSVFPLAPSSKSTSGGTAALGCLVKDYFPEPVTVSWNSGALTSGVHTFPAVLQSSGLYSLSSVVTVPSSSLGTQTYICNVNHKPSNTKVDKRVEPKSCDKTHTCPPCPAPEFQWGPMVFLFPPKPKDVLMISRTPEVTCVVVDVSDEEPEVKFNWYVDGVEVHNAKTKPREEQYNATYRVVSVLPVLHQDWLNGKEYKCKVSNDALPAPIEKTISKAKGQPREPQVYTLPPSRKEMTKNQVSLTCLVKGFYPSDIAVEWESNGQPENNYKTTPPVLDSDGSFFLYSKLTVDKSRWQQGNVFSCSVMHEALHNHYTQKSLSLSP
heavy 2: QVQLVESGGGVVQPGGSLRLSCAASGFTFSSKTMNWVRQAPGKGLEWVSSISTQSHYIYYAESVRGRFTISRDNAKNSLYLQMNSLRAEDTAVYYCARYGAREDMLWVFDYWGQGTLVTVSSASTKGPSVFPLAPSSKSTSGGTAALGCLVKDYFPEPVTVSWNSGALTSGVHTFPAVLQSSGLYSLSSVVTVPSSSLGTQTYICNVNHKPSNTKVDKRVEPKSCDKTHTCPPCPAPELLAGPSVFLFPPKPKDVLMISRTPEVTCVVVDVSHEEPEVKFNWYVDGVEVHNAKTKPREEQYNATYRVVSVLPVLHQDWLNGKEYKCKVSNDALPKPDEETISKAKGQPREPQVYTLPPSREEMTKNQVSLTCLVKGFYPSDIAVEWESNGQPENNYKTTPPVLDSDGSFFLYSKLTVDKSRWQQGNVFSCSVMHEALHNHYTQESLSLSP
light: QSALTQPPSASGSPGQSVTISCEGPSTGVGDYTYVHWYQQHPGKAPKLMIYFTSKKPSGVPDRFSGSKSGNTASLTVSGLQAEDEADYYCQTYAAPLGPMFGGGTKLTVLGQPKAAPSVTLFPPSSEELQANKATLVCLISDFYPGAVTVAWKADSSPVKAGVETTTPSKQSNNKYAASSYLSLTPEQWKSHRSYSCQVTHEGSTVEKTVAPTECS
notes: Heterodimerized antibody
B2: 04H1654-KT481/04L1612-lam1//04H1656-HT498/04L1612-lam1 (antibody)
heavy 1: B1 heavy 1 with I337E, N439A, Y441T, Q443R, S445E
heavy 2: B1 heavy 2 with K335A, D337E, N439A, Y441T, Q443R, S445E
light: B1 light
notes: Heterodimerized antibody with N434A/Y436T/Q438R/S440E
B3: 04H1654-KT473/04L1610-lam1//04H1656-HT482/04L1610-lam1 (antibody)
heavy 1: B1 heavy 1 with N439A, Y441T, Q443R, S445E
heavy 2: B1 heavy 2 with N439A, Y441T, Q443R, S445E
light: B1 light with T33N, Y34W
notes: Heterodimerized antibody with N434A/Y436T/Q438R/S440E; also called SW1610-ART6+ACT1
B4: 04H1654-KT481/04L1610-lam1//04H1656-HT498/04L1610-lam1 (antibody)
heavy 1: B1 heavy 1 with I337E, N439A, Y441T, Q443R, S445E
heavy 2: B1 heavy 2 with K335A, D337E, N439A, Y441T, Q443R, S445E
light: B1 light with T33N, Y34W
notes: as for B2
B5: 04H1654-KT473/04L1612-lam1//04H1656-HT482/04L1612-lam1 (antibody)
heavy 1: B1 heavy 1 with N439A, Y441T, Q443R, S445E
heavy 2: B1 heavy 2 with N439A, Y441T, Q443R, S445E
light: B1 light
notes: as for B2

T1 sequence (P55899 24-290 limits assumed, chain 1 of 2): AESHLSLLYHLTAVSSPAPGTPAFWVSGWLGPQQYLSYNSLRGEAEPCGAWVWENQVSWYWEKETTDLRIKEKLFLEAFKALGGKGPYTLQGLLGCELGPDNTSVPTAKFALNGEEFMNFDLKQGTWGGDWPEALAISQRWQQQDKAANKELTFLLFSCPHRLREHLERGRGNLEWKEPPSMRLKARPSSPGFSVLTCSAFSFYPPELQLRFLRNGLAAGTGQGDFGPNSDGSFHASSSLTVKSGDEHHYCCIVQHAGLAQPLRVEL
T1 sequence (P61769 21-119 limits assumed, chain 2 of 2): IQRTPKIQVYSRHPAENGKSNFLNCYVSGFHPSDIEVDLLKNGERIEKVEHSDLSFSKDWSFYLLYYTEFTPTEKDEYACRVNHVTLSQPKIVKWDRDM

One test concerns the target T1, human FcRn (human, UniProt P55899 24-290; P61769 21-119).
T1 construct: Prepared by the method of WO 2010/107110; also called hFcRn
The test is described as follows: SPR Biacore T200, Ab captured via Fab-lambda, pH 6.0, 25C, steady state. For orientation: Surface plasmon resonance follows binding to a sensor surface in real time, without labels.
Procedure: (§1) The interaction between the generated antibodies and human FcRn was analyzed by the following method using Biacore T200. 50 mM Na-Phosphate, 150 mM NaCl, 0.05% Tween20 (pH 6.0) was used as the running buffer, and the assay was performed at 25° C. For the sensor chip, Series S SA (GE Healthcare) chips onto which CaptureSelect Human Fab-lambda Kinetics Biotin Conjugate (Thermo Fisher Scientific) was immobilized were used. The antibodies of interest were captured onto these chips and FcRn diluted in the running buffer was allowed to interact with them. Chips were regenerated with 10 mM Glycine-HCl (pH 1.5) and 25 mM NaOH, and assay was performed by repeatedly capturing antibodies. The dissociation constant for FcRn of each antibody was calculated using the steady state model, using Biacore T200 Evaluation Software 2.0.
On to B1, for which the Kd (commonly the constant that tells how readily two partners part at equilibrium) stood at 1600 nM.
In turn, B2 had a Kd of 600 nM.
Regarding B3, binding was put at a Kd of 580 nM.
Turning to B4, the Kd is 570 nM.
For the molecule B5, binding was put at a Kd of 620 nM.

Another test deals with T2, human FcγRIIb extracellular domain with C-terminal His-tag (human, UniProt P31994 43-217).
T2 construct: extracellular domain; also called hFcγR IIb
T2 sequence (looked up): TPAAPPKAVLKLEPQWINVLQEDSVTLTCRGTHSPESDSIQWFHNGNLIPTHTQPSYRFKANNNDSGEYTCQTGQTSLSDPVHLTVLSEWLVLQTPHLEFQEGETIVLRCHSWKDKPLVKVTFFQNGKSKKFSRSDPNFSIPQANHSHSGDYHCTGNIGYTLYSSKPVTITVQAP
As to the kind of experiment: SPR; binding amount divided by that of 04H1637-G1m/04L1610-lam1.
For B1, the Relative binding amount turned out to be 3.4.
Turning to B2, the Relative binding amount came to 2.8.
With B3, the Relative binding amount was 3.2.
The molecule B4 had a Relative binding amount of 2.7.
Still for that read-out and setting: to B5 belongs 3.2.

Another test has as its target T3, human FcγRIIa R allotype extracellular domain with C-terminal His-tag (human, UniProt P12318 34-217).
T3 construct: extracellular domain; also called hFcγR IIa R
T3 sequence (looked up): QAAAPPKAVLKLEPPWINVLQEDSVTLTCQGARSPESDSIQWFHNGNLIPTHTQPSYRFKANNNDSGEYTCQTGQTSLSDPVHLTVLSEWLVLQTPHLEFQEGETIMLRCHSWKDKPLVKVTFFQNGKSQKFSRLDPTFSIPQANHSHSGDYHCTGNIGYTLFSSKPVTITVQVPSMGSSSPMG
As to the kind of experiment: SPR Biacore T200, Ab captured via Fab-lambda, pH 7.4, 25C.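 Further: antibodies captured on a streptavidin chip carrying biotinylated anti-Fab-lambda, with each FcγR injected as analyte in phosphate buffer. KD fitted by 1:1 Langmuir or steady-state model depending on receptor.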
Procedure: (§2) The interaction between the generated antibodies and human FcγRs was analyzed by the following method using Biacore T200. 50 mM Na-Phosphate, 150 mM NaCl, 0.05% Tween20 (pH 7.4) was used as the running buffer, and the assay was performed at 25° C. For the sensor chips, Series S SA (GE Healthcare) chips onto which CaptureSelect Human Fab-lambda Kinetics Biotin Conjugate (Thermo Fisher Scientific) was immobilized were used. The antibodies of interest were captured onto these chips and each FcγR diluted in the running buffer was allowed to interact with them. Chips were regenerated with 10 mM Glycine-HCl (pH 1.5) and 25 mM NaOH, and assay was performed by repeatedly capturing antibodies. The dissociation constants KD (mol/L) for FcγRs of each antibody were calculated using Biacore T200 Evaluation Software 2.0, using the 1:1 Langmuir binding model for FcγRIa and FcγRIIIa and the steady state affinity model for FcγRIIa. For FcγRIIb, the binding amount of FcγRIIb per unit amount of antibody was calculated by correcting the binding amount of FcγRIIb obtained from the sensorgram obtained by the measurement with the amount of antibody captured onto the chip surface.
On to B1, for which the Kd came out at 140 nM.
In the case of B2, binding was characterised by a dissociation constant (Kd) of 270 nM.
For the molecule B3, binding was put at a Kd of 150 nM.
As to B4, the Kd is 260 nM.
Molecule B5 gave a Kd of 150 nM.

The next test deals with T4, human FcγRIIIa F allotype extracellular domain with C-terminal His-tag (human, UniProt P08637 17-208).
T4 construct: extracellular domain; also called hFcγR IIIa F
T4 sequence (P08637 17-208): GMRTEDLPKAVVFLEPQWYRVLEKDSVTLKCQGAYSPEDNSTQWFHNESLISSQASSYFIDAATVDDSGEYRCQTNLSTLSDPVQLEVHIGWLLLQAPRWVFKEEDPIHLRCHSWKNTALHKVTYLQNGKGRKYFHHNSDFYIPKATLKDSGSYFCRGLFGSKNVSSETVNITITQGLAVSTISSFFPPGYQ
Described as above.
Procedure: as §2
B1 came in with a Kd of 3.4 nM.
For the molecule B2, binding was characterised by a dissociation constant (Kd) of 2.9 nM.
In the case of B3, the Kd is 3.8 nM.
As for B4, the affinity, expressed as Kd, was 2.8 nM.
B5 had a Kd of 3.9 nM.

Another test deals with T5, human FcγRIa extracellular domain with C-terminal His-tag (human, UniProt P12314 16-292).
T5 construct: extracellular domain; also called hFcγR Ia; hFcγRIa
T5 sequence (P12314 16-292): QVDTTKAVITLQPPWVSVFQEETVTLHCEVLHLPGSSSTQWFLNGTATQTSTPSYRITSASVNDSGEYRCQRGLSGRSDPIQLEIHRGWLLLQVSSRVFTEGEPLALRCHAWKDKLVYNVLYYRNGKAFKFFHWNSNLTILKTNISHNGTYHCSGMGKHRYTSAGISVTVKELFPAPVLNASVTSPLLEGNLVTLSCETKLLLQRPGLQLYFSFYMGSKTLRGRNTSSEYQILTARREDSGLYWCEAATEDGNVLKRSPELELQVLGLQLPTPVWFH
The test is described as above.
Procedure: as §2
Take B1: binding was put at a Kd of 0.041 nM.
Still for that read-out and setting: the value for B2 was 0.043 nM.
B3 yielded a Kd of 0.046 nM.
Regarding B4, the affinity, expressed as Kd, was 0.033 nM.
On the same count and under the same terms, the value for B5 was 0.048 nM.

For a further test, the target named is T6, human FcγRIIIa V allotype extracellular domain with C-terminal His-tag (human, UniProt P08637 17-208).
T6 construct: extracellular domain; also called hFcγR IIIa V
T6 sequence (P08637 17-208 F176V): as the sequence (P08637 17-208) above, with F160V counted along it
The test is described as above.
Procedure: as §2
The molecule B1 gave a Kd of 2.3 nM.
The molecule B2 gave a Kd of 1.7 nM.
In turn, B3 came in with a Kd of 2.1 nM.
On the same count and under the same terms, to B4 belongs 1.6 nM; to B5, 2.2 nM.

For another test, the target named is T7, human FcγRIIa H allotype extracellular domain with C-terminal His-tag (human, UniProt P12318 34-217).
T7 construct: extracellular domain; also called hFcγR IIa H
T7 sequence (looked up): T3 sequence (looked up) with R134H
Described as above.
Procedure: as §2
B1 showed a Kd of 91 nM.
Consider B2, for which binding was put at a Kd of 230 nM.
Consider B3, for which the Kd was 81 nM.
Molecule B4 had a Kd of 230 nM.
On the same count and under the same terms, to B5 belongs 91 nM.

The target of the next test is T2, human FcγRIIb extracellular domain with …. The test is described as follows: SPR; FcγRIIb at 1000 nM, bound amount per unit captured Ab.
Procedure: as §2
In turn, B1 gave a Binding amount of 0.028.
In turn, B2 displayed a Binding amount of 0.022.
In turn, B3 displayed a Binding amount of 0.026.
For B4, the Binding amount is 0.022.
Still for that read-out and setting: to B5 belongs 0.026.

The next test addresses T1, human FcRn. As to the kind of experiment: SPR; KD of 04H1637-G1m/04L1610-lam1 divided by KD of variant.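 Further: biacore T200 SPR at 25 °C, antibodies captured on anti-Fab-lambda SA chip with receptor as analyte, running buffer pH 7.4 for FcγRs and pH 6.0 for FcRn.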
Procedure: as §2, §1
With B1, the “Relative value to KD between G1m and hFcRn” value was 0.8.
On to B2, for which the “Relative value to KD between G1m and hFcRn” value worked out at 2.2.
For B3, the “Relative value to KD between G1m and hFcRn” value amounted to 2.3.
Take B4: the “Relative value to KD between G1m and hFcRn” value was found to be 2.3.
On to B5, for which the “Relative value to KD between G1m and hFcRn” value was 2.1.

The next test has as its target T3, human FcγRIIa R allotype extracellular …. The test is described as above.
Procedure: as §2, §1
For B1, the “Relative value to KD between G1m and hFcγRs” value was 14.2.
On the same count and under the same terms, to B2 belongs 7.6; to B3, 13.9; to B4, 7.7.
With B5, the “Relative value to KD between G1m and hFcγRs” value came to 13.8.

The target of another test is T4, human FcγRIIIa F allotype extracellular …. The description is as above.
Procedure: as §2, §1
B1: the “Relative value to KD between G1m and hFcγRs” value stood at 408.
In the case of B2, the “Relative value to KD between G1m and hFcγRs” value is 479.
The same measure, in the same setting: the value for B3 was 363; that for B4 was 495; that for B5 was 355.

The target of the next test is T5, human FcγRIa extracellular domain with …. The test is described as above.
Procedure: as §2, §1
Take B1: the “Relative value to KD between G1m and hFcγRs” value was 1.2.
For B2, the “Relative value to KD between G1m and hFcγRs” value is 1.1.
Same read-out and setting: to B3 belongs 1.1.
In the case of B4, the “Relative value to KD between G1m and hFcγRs” value is 1.5.
Regarding B5, the “Relative value to KD between G1m and hFcγRs” value turned out to be 1.

The next test addresses T6, human FcγRIIIa V allotype extracellular …. The test is described as above.
Procedure: as §2, §1
For the molecule B1, the “Relative value to KD between G1m and hFcγRs” value worked out at 106.
Same read-out and setting: the value for B2 was 145; that for B3 was 115.
On to B4, for which the “Relative value to KD between G1m and hFcγRs” value was determined as 152.
On to B5, for which the “Relative value to KD between G1m and hFcγRs” value was found to be 110.

For another test, the target named is T7, human FcγRIIa H allotype extracellular …. The test is described as above.
Procedure: as §2, §1
As for B1, the “Relative value to KD between G1m and hFcγRs” value was 16.1.
Consider B2, for which the “Relative value to KD between G1m and hFcγRs” value is 6.4.
In the case of B3, the “Relative value to KD between G1m and hFcγRs” value was determined as 18.
Still for that read-out and setting: the value for B4 was 6.5; that for B5 was 16.2.
